# Reference: patent publication US20150087812A1 (Janssen / Centocor, published 2015)
# Positions count from the first letter of the chain named.
# B1: Fab F63 (VH H55, VL L57) (Fab, V domains shown)
# VH: QVQLVQSGAEVKKPGSSVKVSCKASGGTFSSYGISWVRQAPGQGLEWMGGIIPIFGTANYAQKFQGRVTITADESTSTAYMELSSLRSEDTAVYYCARRDGNYLHVDHFDYWGQGTLVTVSS
# VL: EIVLTQSPATLSLSPGERATLSCRASQSVASALAWYQQKPGQAPRLLIYKASNRATGIPARFSGSGSGTDFTLTISSLEPEDFAVYYCQQGGNWPWTFGQGTKVEIK
# notes: Soluble Fab-His
# B2: Fab F40 (VH H32, VL L42) (Fab, V domains shown)
# VH: EVQLVQSGGGLVQPGGSLRLSCAASGFTFSSYAMSWVRQAPGKGLEWVSVINSDGSSIYYADSVKGRFTISRDNSKNTLYLQMNSLRAEDTAVYYCAKLEAIDYAWGFDYWGQGTLVTVSS
# VL: B1 VL with S31D, A32S, K50N, G91S, G92F, N93H, W96L
# notes: Soluble Fab-His; converted to mAb B16; the Fab's H32 may differ in FR1
# B3: Fab F5 (VH H4, VL L4) (Fab, V domains shown)
# VH: EVQLVQSGAEVKKPGESLKISCKGSGYSFTSYWIGWVRQMPGKGLEWMGIIYPGDSDTRYSPSFQGQVTISADKSISTAYLQWSSLKASDTAMYYCARNWSEALYVVFDYWGQGTLVTVSS
# VL: B1 VL with S31N, A32F, K50Y, G91Y, G92F, N93S, W94A, W96F
# notes: Soluble Fab-His; converted to mAb B1
# B4: Fab F69 (VH H63, VL L63) (Fab, V domains shown)
# VH: QVQLVQSGAEVKKPGSSVKVSCKASGGTFSSYAISWVRQAPGQGLEWMGGIIPIFGTANYAQKFQGRVTITADESTSTAYMELSSLRSEDTAVYYCARDDDVNSLASYPLDYWGQGTLVTVSS
# VL: B1 VL with A30S, S31K, K50Y, G91Y, G92K, W94A, W96R
# notes: Soluble Fab-His
# B5: Fab F74 (VH H68, VL L68) (Fab, V domains shown)
# VH: B4 VH with D100G, L105V, A106Y, Y108S, P109G
# VL: B1 VL with A30N, S31K, A32F, K50F, G91Y, G92N, N93H, W94A, W96F
# notes: Soluble Fab-His
# B6: Fab F100 (VH H93, VL PH9L1) (Fab, V domains shown)
# VH: QVQLVQSGAEVKKPGSSVKVSCKASGGTFSSYAISWVRQAPGQGLEWMGGIIPIFGNTNYAQKFQGRVTITADESTSTAYMELSSLRSEDTAVYYCARHYLPDATLDYWGQGTLVTVSS
# VL: not shown
# notes: Soluble Fab-His
# B7: Fab F67 (VH H60, VL L61) (Fab, V domains shown)
# VH: QVQLVQSGAEVKKPGSSVKVSCKASGGTFSSYAISWVRQAPGQGLEWMGGIIPIFGTANYAQKFQGRVTITADESTSTAYMELSSLRSEDTAVYYCARIARYARGYMHTFDYWGQGTLVTVSS
# VL: DIQMTQSPSSLSASVGDRVTITCRASQSISSYLNWYQQKPGKAPKLLIYAASSLQSGVPSRFSGSGSGTDFTLTISSLQPEDFATYYCQQHLSIPITFGQGTKVEIK
# notes: Soluble Fab-His; converted to mAb B10
# B8: Fab F105 (VH H97, VL L93) (Fab, V domains shown)
# VH: QVQLVQSGAEVKKPGSSVKVSCKASGGTFSSYGISWVRQAPGQGLEWMGGIIPIFGTANYAQKFQGRVTITADESTSTAYMELSSLRSEDTAVYYCARGDDNEVIYHLDYWGQGTLVTVSS
# VL: EIVLTQSPGTLSLSPGERATLSCRASQSVAKSDLAWYQQKPGQAPRLLIYTASSRATGIPDRFSGSGSGTDFTLTISRLEPEDFAVYYCQQDYGYPLTFGQGTKVEIK
# notes: Soluble Fab-His
# B9: Fab F89 (VH H70, VL L82) (Fab, V domains shown)
# VH: QVQLVQSGAEVKKPGSSVKVSCKASGGTFSSYAISWVRQAPGQGLEWMGGISPYFGNANYAQKFQGRVTITADESTSTAYMELSSLRSEDTAVYYCARYGDFGGNVFTEFDYWGQGTLVTVSS
# VL: B8 VL with A30N, K31N, D92A, Y93T, G94T, Y95V
# notes: Soluble Fab-His; converted to mAb B9
# B10: Fab F90 (VH H83, VL L83) (Fab, V domains shown)
# VH: B8 VH with G33A, D100E, D101A, I105Y, Y106P, H107G
# VL: B8 VL with A30S, D33A, T51N, D92S, Y93N, G94K, Y95D
# notes: Soluble Fab-His
# B11: Fab F130 (VH H129, VL L113) (Fab, V domains shown)
# VH: QVQLVQSGAEVKKPGSSVKVSCKASGGTFSSYAISWVRQAPGQGLEWMGGIIPIFGTANYAQKFQGRVTITADESTSTAYMELSSLRSEDTAVYYCARDHGYAYYSAFDYWGQGTLVTVSS
# VL: B8 VL with A30S, K31S, D33Y, T51G, D92S, Y93S, G94R, Y95D, L97W
# notes: Soluble Fab-His
# B12: Fab F117 (VH H110, VL L103) (Fab, V domains shown)
# VH: B8 VH with G33A, G99A, D101A, E103Q, V104L, I105S, Y106G, H107Y
# VL: B7 VL with S30G, S31R, Y32S, H91P, L92F, S93D, I94Y, I96F
# notes: Soluble Fab-His
# B13: Fab F126 (VH H123, VL L110) (Fab, V domains shown)
# VH: B6 VH with N57T, T58A, H99D, Y100R, L101Y, P102Y, D103F, A104T, T105V
# VL: B8 VL with A30S, K31S, D33Y, T51G, D92A, Y93T, G94A, Y95F
# notes: Soluble Fab-His; converted to mAb B12
# B14: Fab F85 (VH H58, VL L79) (Fab, V domains shown)
# VH: QVQLVQSGAEVKKPGSSVKVSCKASGGTFSSYAISWVRQAPGQGLEWMGGIIPIFGTANYAQKFQGRVTITADESTSTAYMELSSLRSEDTAVYYCARDLYGIDIYYALDYWGQGTLVTVSS
# VL: B8 VL with A30S, K31S, D33Y, T51G, D92S, Y93N, G94T, Y95L
# notes: Soluble Fab-His
# B15: Fab F116 (VH H108, VL L100) (Fab, V domains shown)
# VH: B8 VH with G33A, G99S, D101L, E103N, I105S, Y106T, H107V
# VL: B7 VL with S30G, S31K, Y32V, A50G, H91P, L92I, I94T, I96L
# notes: Soluble Fab-His
# B16: Fab F135 (VH H138, VL L118) (Fab, V domains shown)
# VH: QVQLVQSGAEVKKPGSSVKVSCKASGGTFSSYAISWVRQAPGQGLEWMGGIIPIFGTANYAQKFQGRVTITADESTSTAYMELSSLRSEDTAVYYCARDFLSQFSWLDYWGQGTLVTVSS
# VL: B8 VL with A30S, K31S, D33Y, T51G, D92S, Y93S, Y95F
# notes: Soluble Fab-His
# B17: Fab F118 (VH H111, VL L104) (Fab, V domains shown)
# VH: B6 VH with A33G, N57T, T58A, H99D, Y100D, D103L, A104G, T105M
# VL: B8 VL with A30S, K31S, D33Y, T51G, D92Y, Y93T, G94A, Y95F
# notes: Soluble Fab-His; converted to mAb B11
# B18: Fab F68 (VH H62, VL L62) (Fab, V domains shown)
# VH: B6 VH with A33G, N57T, H99D, Y100W, L101W, P102V, D103T, A104D, T105I
# VL: B8 VL with A30S, K31S, D33Y, T51G, D92S, Y93N, G94T, Y95N
# notes: Soluble Fab-His
# B19: Fab F72 (VH H65, VL PH9L1) (Fab, V domains shown)
# VH: B11 VH with D99G, H100D, G101A, Y102N, A103S, Y104I, S106P, A107L
# VL: not shown
# notes: Soluble Fab-His
# B20: Fab F122 (VH H119, VL L108) (Fab, V domains shown)
# VH: B16 VH with F100G, L101V, S102T, Q103T, F104Y, S105D, W106Y, L107F
# VL: B8 VL with A30S, K31S, D33Y, T51G, D92S, Y93S, G94R, L97W
# notes: Soluble Fab-His
# B21: Fab F128 (VH H127, VL L111) (Fab, V domains shown)
# VH: B6 VH with T58A, H99G, Y100F, L101V, P102N, D103F, A104S, T105R
# VL: B8 VL with A30S, K31S, D33Y, T51G, Y93S, G94A, Y95F, L97W
# notes: Soluble Fab-His
# B22: Fab F78 (VH H73, VL L73) (Fab, V domains shown)
# VH: B6 VH with N57T, T58A, H99G, Y100T, L101F, P102T, D103Y, A104D, T105F
# VL: B8 VL with A30S, K31S, D33Y, T51G, D92S, Y93S, G94R, Y95F, L97W
# notes: Soluble Fab-His
# B23: Fab F93 (VH H86, VL L79) (Fab, V domains shown)
# VH: B6 VH with N57T, T58A, H99D, Y100T, L101F, P102W, D103F, A104T, T105V, L106F
# VL: B8 VL with A30S, K31S, D33Y, T51G, D92S, Y93N, G94T, Y95L
# notes: Soluble Fab-His
# Molecular target: T1, recombinant human ATX beta isoform with N-terminal purification tag (human, UniProt Q13822 49-863)
# Test: ELISA, Fab-His captured by anti-Fd, 5 nM biotinylated human ATX beta
# Description: (§1) Fabs were captured on black MaxiSorp plates (Nunc, Cat. No. 437111) coated with 1 μg/ml sheep anti-human Fd (CH1) antibody (The Binding Site, Cat. No. PC075). Plates were washed and biotinylated human ATX was added to the captured Fabs at 5 nM. Incubation was carried out for 1 hour at room temperature with gentle shaking. Plates were washed, SA-HRP (Invitrogen, Cat. No. 43-4323) was added and chemiluminescent detection carried out.
# (§2) Clones with binding above background were sequenced and unique clones identified. […] These clones were identified with binding signal to human ATX at least 6-fold above the background. Table 3 lists the identifier for VH and VL (Peptide ID) and the combination of both (Fab ID) sorted by the Fab ELISA binding data.
row,Fab Binding,Binder
1,980000 relative chemiluminescence units,B1
2,8.1e+06 relative chemiluminescence units,B2
3,3.8e+06 relative chemiluminescence units,B3
4,2e+06 relative chemiluminescence units,B4
5,1.7e+06 relative chemiluminescence units,B5
6,1.9e+06 relative chemiluminescence units,B6
7,8.8e+06 relative chemiluminescence units,B7
8,970000 relative chemiluminescence units,B8
9,5.7e+06 relative chemiluminescence units,B9
10,1.7e+06 relative chemiluminescence units,B10
11,2.2e+06 relative chemiluminescence units,B11
12,1.8e+06 relative chemiluminescence units,B12
13,2.4e+06 relative chemiluminescence units,B13
14,1.7e+06 relative chemiluminescence units,B14
15,1.9e+06 relative chemiluminescence units,B15
16,2e+06 relative chemiluminescence units,B16
17,2.6e+06 relative chemiluminescence units,B17
18,1.8e+06 relative chemiluminescence units,B18
19,1.6e+06 relative chemiluminescence units,B19
20,1.9e+06 relative chemiluminescence units,B20
21,1.8e+06 relative chemiluminescence units,B21
22,1.9e+06 relative chemiluminescence units,B22
23,1.6e+06 relative chemiluminescence units,B23

# Molecular target: T1, recombinant human ATX beta isoform with …
# Test: Fab-His ELISA
# Description: as §1, §2
row,fold above background [fold],Binder
1,≥ 6,B1
2,≥ 6,B2
3,≥ 6,B3
4,≥ 6,B4
5,≥ 6,B5
6,≥ 6,B6
7,≥ 6,B7
8,≥ 6,B8
9,≥ 6,B9
10,≥ 6,B10
11,≥ 6,B11
12,≥ 6,B12
13,≥ 6,B13
14,≥ 6,B14
15,≥ 6,B15
16,≥ 6,B16
17,≥ 6,B17
18,≥ 6,B18
19,≥ 6,B19
20,≥ 6,B20
21,≥ 6,B21
22,≥ 6,B22
23,≥ 6,B23
